One block for each molecule: values may come before it.
Tests used:
[1] = Indirect ELISA on microplates coated with BSA-PFOA conjugate; format: binding; conditions: for response to BSA-PFOA at 1:50,000 dilution: antibody dilution 1:50,000; for binding affinity to BSA-PFOA: indirect ELISA, various antibody dilutions
Procedure: Polyclonal rabbit antibodies to PFOA were prepared according to methods well known in the art. E. Harlow & D. Lane, Antibodies: A Laboratory Manual (1988) (published by Cold Spring Harbor Press, Cold Spring Harbor, N.Y.). These polyclonal antibodies were tested for their binding affinity to PFOA (FIG. 1A). PFOA was conjugated to bovine serum albumin by methods well known in the art. G.T. Hermanson, Bioconjugate Techniques (Academic Press, 785 pp., 1995). S.S. Wong, Chemistry of Protein Conjugation and Cross-Linking (CRC Press, 340 pp., 1991); G.T. Hermanson et al., Immobilized Affinity Ligand Techniques (Academic Press, 450 pp., 1992). Microplates were treated with BSA-PFOA conjugate and incubated. After washing with buffer, blocking solution was added followed by varying dilutions of monoclonal antibodies (mABs). The plate was then further incubated. After washing again, anti-rabbit secondary antibodies were added. A color reaction was developed using tetramethyl benzidine (TMB), and the reaction was read at 450 nm.
The results were consistent over various antibody dilutions.

[2] = Competitive ELISA, conjugated PFOA versus free PFOA; format: binding; conditions: for lowest PFOA concentration detected: synthetic matrix under laboratory conditions
Procedure: (§1) Microplates were treated with anti-PFOA mABs. After incubation, the wells were exposed to a biotin-PFOA conjugate and free PFOA compounds, which compete for a finite number of antibody recognition sites. Next, streptavidin-HRP conjugate was added, which binds to the biotin-PFOA molecules. The resultant color reaction was measured spectrophotometrically. P. Langer et al., 78 Proc. Nat'l Acad. Sci USA 6633-37 (1981); A. Forster et al., 13 Nucleic Acids Res. 745-61 (1985); L. Riley et al., 5 DNA 333-37 (1986); M.D. Savage et al., Avidin-Biotin Chemistry: A Handbook (Pierce Chemical Co., 467 pp., 1992). The amount of signal was inversely proportional to the concentration of free-PFOA provided. This approach determined the dynamic range of antibody detection.
Antibodies mAB3 and mAB5 were then tested for dose response to PFOA using the competitive ELISA described in FIG. 1B. The assay was performed using two carrier molecules: (1) biotin (small carrier), and (2) horse radish peroxidase (HRP; large carrier). […] Also observed was the dynamic response of the assay to 0.5 ppb (500 ppt) of PFOA.
A plasmid containing the sequence for antibody mAB3 was expressed in Expi293 cells, and the resulting antibody was purified using Protein A and gel filtration chromatography, as is well known in the art. This antibody was tested for its binding affinity to PFOA using the competitive ELISA described in FIG. 1B.

[3] = Competitive ELISA, specificity of binding to PFOA compared with octanoic acid; conditions: FIG. 5
Procedure: as §1
Antibodies mAB3 and mAB5 were also tested for specificity of binding to PFOA as compared to known analogs, such as OA.

[4] = Surface plasmon resonance, antibody on CM5 sensor chip; format: binding; conditions: for SPR signal with PFOA: PFOA between 41 ppm and 41 ppb; for type of SPR binding interaction: instant association and dissociation curve
Excerpt: Surface plasmon resonance occurs when a directed light at a specific angle of incidence excites electrons in a thin metal sheet. As a result, the electrons travel parallel to the sheet. This is related to the refractive index of the material. Even a small change alters the response, allowing SPR to be used as a techniques for detection of physical interactions between analytes. […] In this example, the antibody is bound to a sensor chip that carries a matrix of carboxymethylated dextran covalently attached to a gold surface. In this example, the chip is a CM5 sensor chip.
mAb3 (FIG. 11) and mAB5 (FIG. 12) were tested for binding with different concentrations of PFOA ([…], 10 μM, 1 μM, 0.1 μM). The concentration of PFOA tested was between ˜41 ppm and 41 ppb.

[5] = Waveguide interferometry, antibody coupled to waveguide surface; format: binding; conditions: groundwater from a contaminated site, approximately 7.5 ppb PFOA, compared with 2 ppb PFOA signal
Procedure: The device combines two very sensitive methods, waveguiding and interferometry, to form waveguide interferometry technology used in rapid low-level detection sensing applications. In optical interferometry, small changes in refractive index are measured along the pathway of an optical beam of light during its propagation. As the light propagates, it generates an optical electromagnetic field, a small fraction of which-known as the evanescent field-enables detection by interacting with the changes in refractive index occurring on the waveguide cover layer. […] As PFAS is introduced to the functionalized waveguide, PFAS binding to the antibody displaces the sample solution near the waveguide surface, changing the light beam's velocity. Simultaneously, an adjacent reference beam is left unperturbed and is optically combined with the sensing beam to measure the velocity change. This creates an interference pattern that shifts as the refractive index changes, producing a corresponding change in the relative phase measurement.
Binding of PFAS binding proteins to PFAS was tested using interferometry. Specifically, binding of anti-PFOA antibody mAB5 to PFOA was measured by comparing the interferometry signal for a 1% methanol PBS buffer containing either 0 ppb PFOA (negative control; FIG. 14A) or 2 ppb PFOA (test sample; FIG. 14B). […]

[6] = Competitive ELISA, binding affinity to other PFAS compounds
Procedure: as §1
The mAB3 produced in vitro was also tested for its binding affinity to other PFAS compounds, including PFOS, PFHxS, and PFBA.

binding affinity to BSA-PFOA [1]: no significant binding affinity
B3: mAB4: rabbit anti-PFOA monoclonal antibody, heavy chain variable SEQ ID NO: 18, light chain variable SEQ ID NO: 23 (antibody, listed as Oryctolagus cuniculus, V domains shown)
VH: QEQLEESRGGLIKPTDTLTLTCTASGFSLSNYGINWVRQAPGEGLEWIGAIRGSGFIYYATWAKSRSTITRNTNLNTVTLKMTSLTAADTATYFCARRDGLYSAMDPWGPGTLVTVSS
VL: DPVLTQTPSSTSAAVGGTVTISCQSSDSVYKNNYLAWFQQKPGQPPKVLIYHASKLASGVPSRFSGSGSGTQFTLTISGVQCDDAATYYCLGEYSDTHVFGGGTEVVVKG

binding affinity to BSA-PFOA [1]: no significant binding affinity
B5: mAB1: rabbit anti-PFOA monoclonal antibody, heavy chain variable SEQ ID NO: 15, light chain variable SEQ ID NO: 20 (antibody, listed as Oryctolagus cuniculus, V domains shown)
VH: QSVKESEGGLFKPTDTLTLTCTASGFSLSSYGVSWVRQAPGNGLEWIGSIEDGGSAYYASWAKSRSTITSNTNLNTVTLQMTSLTAADTATYFCGSLSIGSAYPGIWGPGTLVTVSS
VL: AIVMTQTPSSKSVPVGDTVTIKCQASQSIGTRLAWFQQKPGQPPKRLIYSASTLASGVPSRFSGSGSGTQFTLTISDVVCDDAAAYYCGGYKSSSSDGIAFGGGTEVVVKG

More lines, now with the values behind:

B1: mAB5: rabbit anti-PFOA monoclonal antibody, heavy chain variable SEQ ID NO: 19, light chain variable SEQ ID NO: 24 (antibody, listed as Oryctolagus cuniculus, V domains shown)
VH: QSVKESEGGLFKPTDTLTLTCTASGFSLSSYGVIWVRQAPGKGLQWIGFINIYGTPSYASWAMGRSTITGNTNLNTVILKMTSLTVADTATYFCASSVGSDGYLYSSDIWGPGTLVTVSS
VL: DPVLTQTPSSVSAAVGGTVTINCQASQSVYNNKCLAWYQQKPGQPPKLLIYGASTLASGVPSRFSGSGSGTQFTLTISDLECDDAATYYCAGGYYSEIHFGGGTEVVVKG
response to BSA-PFOA at 1:50,000 dilution [1]: negligible | binding affinity to BSA-PFOA [1]: best binding affinity | lowest PFOA concentration detected [2]: 0.5 ppb | response to PFOA versus OA [3]: 78 fold | SPR signal with PFOA [4]: concentration dependent signal | type of SPR binding interaction [4]: steady-state interaction | interferometry signal in groundwater [5]: consistent and approximately proportional to the concentration of PFOA

B2: mAB2: rabbit anti-PFOA monoclonal antibody, heavy chain variable SEQ ID NO: 16, light chain variable SEQ ID NO: 21 (antibody, listed as Oryctolagus cuniculus, V domains shown)
VH: QSVKESEGGLFKPTDNLTLTCAVSRFSLSSYGVSWVRQAPGNGLEWIGYIYTDGSAYYASWAKSRSTITRNTNLNTVTLKMTSLTAADTATYFCARHSSGWGIDYFNVWGPGTLVTVSS
VL: AAVLTQTPSSVSAAVGGTVTINCQASQSVYNNNYLSWYQQKPGQPPKLLIYLASTLASGVPSRFSGSGSGTEFTLTISDLECDDGATYYCAGGVTSSDRPFGGGTEVVVKG
binding affinity to BSA-PFOA [1]: no significant binding affinity

B4: mAB3: rabbit anti-PFOA monoclonal antibody, heavy chain variable SEQ ID NO: 17, light chain variable SEQ ID NO: 22 (antibody, listed as Oryctolagus cuniculus, V domains shown)
VH: QSLEESEGGLFKPGGTLTLTCTVSGFSLNIYSISWVRQAPGKELEWIGTMSNVDATYYANWAKSRSTITRNINESTVTLKMPSLTVADTATYFCARYIYGAGYDIWGPGTLVTVSS
VL: ADIVMTQTPASVEAAVGGTVTIKCQASQSISSWLSWYQQKPGQPPKLLIYKASTLASGVPSRFKGSGSGTEYTLTISGVQCADAATYYCQSVYYSSSTNYGNTFGGGTEVVVKG
response to BSA-PFOA at 1:25,000 dilution compared with 1:5,000 ([1]; antibody dilution 1:25,000 vs 1:5,000): approximately four-fold lower | response to BSA-PFOA at 1:50,000 dilution [1]: very depressed | binding affinity to BSA-PFOA [1]: best binding affinity | binding affinity to PFOA ([2]; antibody expressed in Expi293 cells, purified using Protein A and gel filtration chromatography): about 1 ppt | binding affinity to PFOA ([2]; antibody isolated from rabbit serum): about 500 ppt | lowest PFOA concentration detected [2]: 0.5 ppb | affinity to OA as compared to PFOA [3]: six-fold lower | binding to PFOS and other PFAS compounds in addition to PFOA ([6]; FIG. 9): can bind | binding affinity to PFOS as compared to PFOA ([6]; purified antibody produced in vitro): 99% | SPR signal with PFOA [4]: concentration dependent signal | type of SPR binding interaction [4]: steady-state interaction

Reference: patent US20250369960A1, “PER- AND POLYFLUORINATED ALKYL COMPOUND (PFAS) BINDING PROTEINS AND USES THEREOF” (Allonnia, LLC, priority 2022, published 2025)
